Results from PMC6076264.

Target: ribosomal protein bL12 (E. coli (endogenous in ribosomes of strain MRE600)) (UniProt P0A7K2)
Chain of UniProt P0A7K2 (P0A7K2 whole entry): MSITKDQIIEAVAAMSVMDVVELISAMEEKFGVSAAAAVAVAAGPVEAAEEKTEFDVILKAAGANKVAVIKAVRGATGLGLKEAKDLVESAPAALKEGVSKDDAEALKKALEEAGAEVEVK

Work on “RF1 (wild type) (from UniProt P0A7I0 1-360) (natural protein)” yielded an apparent affinity of RF1 for pre-hydrolysis complexes (PreHC, 0.01 uM) prepared with bL12-depleted (∆bL12) ribosomes, from peptide hydrolysis (10 s, 37 °C) of 210 nM and an apparent affinity of RF1 for pre-hydrolysis complexes (PreHC, 0.01 uM) prepared with wild-type ribosomes bearing bL12, from peptide hydrolysis (10 s, 37 °C) of 9 nM.
